Test results published in the Human Domainome abundance scans (Beltran et al. 2025).
± gives the uncertainty stated by the source.

B1: KAT8 regulatory NSL complex subunit 2, residues 28 to 91; numbered along this chain, Q9H9L4 (parent)
chain: CAFTHRPCSHPRLEGQEFCIKHILEDKNAPFKQCSYISTKNGKRCPNAAPKPEKKDGVSFCAEH

Variants of: B1
Experiment: abundance fitness (aPCA) (normalised: wild type 0, dead -1); higher = more abundant; growth selection in yeast, the domain comes from the species named
Conditions: Homo sapiens

Variant	abundance fitness
CAFTHRPCSHPRLEGQEFCIKHILEDKNAPFKQCSKISTKNGKRCPNAAPKPEKKDGVSFCAEH [Y36K]	-0.015 ± 0.069
CAFTHRPCSHPRLEGQEFCIKHILEDKNAPFKQCSNISTKNGKRCPNAAPKPEKKDGVSFCAEH [Y36N]	-0.157 ± 0.13
CAFTHRPCSHPRLEGQEFCIKHILEDKNAPFKQCSMISTKNGKRCPNAAPKPEKKDGVSFCAEH [Y36M]	-0.216 ± 0.069
CAFTHRPCSHPRLEGQEFCIKHILEDKNAPFKQCSIISTKNGKRCPNAAPKPEKKDGVSFCAEH [Y36I]	-0.131 ± 0.092
CAFTHRPCSHPRLEGQEFCIKHILEDKNAPFKQCSQISTKNGKRCPNAAPKPEKKDGVSFCAEH [Y36Q]	-0.078 ± 0.11
CAFTHRPCSHPRLEGQEFCIKHILEDKNAPFKQCSPISTKNGKRCPNAAPKPEKKDGVSFCAEH [Y36P]	-0.298 ± 0.087
CAFTHRPCSHPRLEGQEFCIKHILEDKNAPFKQCSRISTKNGKRCPNAAPKPEKKDGVSFCAEH [Y36R]	-0.055 ± 0.058
CAFTHRPCSHPRLEGQEFCIKHILEDKNAPFKQCSTISTKNGKRCPNAAPKPEKKDGVSFCAEH [Y36T]	-0.054 ± 0.066
CAFTHRPCSHPRLEGQEFCIKHILEDKNAPFKQCSSISTKNGKRCPNAAPKPEKKDGVSFCAEH [Y36S]	-0.06 ± 0.056
CAFTHRPCSHPRLEGQEFCIKHILEDKNAPFKQCSFISTKNGKRCPNAAPKPEKKDGVSFCAEH [Y36F]	-0.015 ± 0.08
CAFTHRPCSHPRLEGQEFCIKHILEDKNAPFKQCSVISTKNGKRCPNAAPKPEKKDGVSFCAEH [Y36V]	-0.129 ± 0.045
CAFTHRPCSHPRLEGQEFCIKHILEDKNAPFKQCSLISTKNGKRCPNAAPKPEKKDGVSFCAEH [Y36L]	-0.156 ± 0.05
CAFTHRPCSHPRLEGQEFCIKHILEDKNAPFKQCSGISTKNGKRCPNAAPKPEKKDGVSFCAEH [Y36G]	-0.085 ± 0.049
CAFTHRPCSHPRLEGQEFCIKHILEDKNAPFKQCSWISTKNGKRCPNAAPKPEKKDGVSFCAEH [Y36W]	-0.122 ± 0.069
CAFTHRPCSHPRLEGQEFCIKHILEDKNAPFKQCSHISTKNGKRCPNAAPKPEKKDGVSFCAEH [Y36H]	-0.016 ± 0.089
CAFTHRPCSHPRLEGQEFCIKHILEDKNAPFKQCSYIGTKNGKRCPNAAPKPEKKDGVSFCAEH [S38G]	-0.048 ± 0.058
CAFTHRPCSHPRLEGQEFCIKHILEDKNAPFKQCSYIKTKNGKRCPNAAPKPEKKDGVSFCAEH [S38K]	-0.084 ± 0.11
CAFTHRPCSHPRLEGQEFCIKHILEDKNAPFKQCSYIFTKNGKRCPNAAPKPEKKDGVSFCAEH [S38F]	-0.038 ± 0.075
CAFTHRPCSHPRLEGQEFCIKHILEDKNAPFKQCSYIMTKNGKRCPNAAPKPEKKDGVSFCAEH [S38M]	-0.159 ± 0.1
CAFTHRPCSHPRLEGQEFCIKHILEDKNAPFKQCSYIITKNGKRCPNAAPKPEKKDGVSFCAEH [S38I]	-0.348 ± 0.15
CAFTHRPCSHPRLEGQEFCIKHILEDKNAPFKQCSYIATKNGKRCPNAAPKPEKKDGVSFCAEH [S38A]	-0.002 ± 0.058

Variant	abundance fitness
CAFTHRPCSHPRLEGQEFCIKHILEDKNAPFKQCSYIHTKNGKRCPNAAPKPEKKDGVSFCAEH [S38H]	-0.111 ± 0.085
CAFTHRPCSHPRLEGQEFCIKHILEDKNAPFKQCSYIETKNGKRCPNAAPKPEKKDGVSFCAEH [S38E]	-0.059 ± 0.081
CAFTHRPCSHPRLEGQEFCIKHILEDKNAPFKQCSYICTKNGKRCPNAAPKPEKKDGVSFCAEH [S38C]	-0.026 ± 0.076
CAFTHRPCSHPRLEGQEFCIKHILEDKNAPFKQCSYILTKNGKRCPNAAPKPEKKDGVSFCAEH [S38L]	-0.076 ± 0.05
CAFTHRPCSHPRLEGQEFCIKHILEDKNAPFKQCSYSSTKNGKRCPNAAPKPEKKDGVSFCAEH [I37S]	-0.061 ± 0.062
CAFTHRPCSHPRLEGQEFCIKHILEDKNAPFKQCSYQSTKNGKRCPNAAPKPEKKDGVSFCAEH [I37Q]	-0.031 ± 0.12
CAFTHRPCSHPRLEGQEFCIKHILEDKNAPFKQCSYLSTKNGKRCPNAAPKPEKKDGVSFCAEH [I37L]	-0.044 ± 0.047
CAFTHRPCSHPRLEGQEFCIKHILEDKNAPFKQCSYASTKNGKRCPNAAPKPEKKDGVSFCAEH [I37A]	-0.177 ± 0.062
CAFTHRPCSHPRLEGQEFCIKHILEDKNAPFKQCSYGSTKNGKRCPNAAPKPEKKDGVSFCAEH [I37G]	-0.022 ± 0.04
CAFTHRPCSHPRLEGQEFCIKHILEDKNAPFKQCSYPSTKNGKRCPNAAPKPEKKDGVSFCAEH [I37P]	-0.142 ± 0.079
CAFTHRPCSHPRLEGQEFCIKHILEDKNAPFKQCSYYSTKNGKRCPNAAPKPEKKDGVSFCAEH [I37Y]	-0.137 ± 0.098
CAFTHRPCSHPRLEGQEFCIKHILEDKNAPFKQCSYKSTKNGKRCPNAAPKPEKKDGVSFCAEH [I37K]	-0.107 ± 0.1
CAFTHRPCSHPRLEGQEFCIKHILEDKNAPFKQCSYMSTKNGKRCPNAAPKPEKKDGVSFCAEH [I37M]	0.046 ± 0.092
CAFTHRPCSHPRLEGQEFCIKHILEDKNAPFKQCSYNSTKNGKRCPNAAPKPEKKDGVSFCAEH [I37N]	-0.042 ± 0.13
CAFTHRPCSHPRLEGQEFCIKHILEDKNAPFKQCSYDSTKNGKRCPNAAPKPEKKDGVSFCAEH [I37D]	-0.302 ± 0.15
CAFTHRPCSHPRLEGQEFCIKHILEDKNAPFKQCSYWSTKNGKRCPNAAPKPEKKDGVSFCAEH [I37W]	-0.127 ± 0.052
CAFTHRPCSHPRLEGQEFCIKHILEDKNAPFKQCSYRSTKNGKRCPNAAPKPEKKDGVSFCAEH [I37R]	-0.045 ± 0.045
CAFTHRPCSHPRLEGQEFCIKHILEDKNAPFKQCSYESTKNGKRCPNAAPKPEKKDGVSFCAEH [I37E]	-0.042 ± 0.095
CAFTHRPCSHPRLEGQEFCIKHILEDKNAPFKQCSYTSTKNGKRCPNAAPKPEKKDGVSFCAEH [I37T]	0.038 ± 0.069
CAFTHRPCSHPRLEGQEFCIKHILEDKNAPFKQCSYCSTKNGKRCPNAAPKPEKKDGVSFCAEH [I37C]	-0.032 ± 0.12
CAFTHRPCSHPRLEGQEFCIKHILEDKNAPFKQCSYHSTKNGKRCPNAAPKPEKKDGVSFCAEH [I37H]	0.039 ± 0.15
